B1: LINE1-mini (parent)
chain: GGCAGAGCUCAACACAGCGUGGCAAAGUGGCUGUGGCUAGACUGCC

Variants of: B1
Assay: self-cleavage, relative activity (ratio to wild type); higher = more cleavage; in vitro, sequencing; the parent is a self-cleaving ribozyme

Row | Variant | self-cleavage
1 | GGCAGAGCUAAACACAGCGUGGCAAUGUGGCUGUGGCUAGACUGCC | 0.06
2 | GGCUGAGCUCAACACGGCGUGGCAAAGUGGCUGUGGCUAGACUGCC | 0.12
3 | GGCAGAGCUCAACACAGCCUGUCAAAGUGGCUGUGGCUAGACUGCC | 0.51
4 | GGCAGAGCUCAACACAGCGUGGUAAAGUGGCUGUGGCUACACUGCC | 0.12
5 | GGCAGAGCUCAACACAGCGUGGCAUACUGGCUGUGGCUAGACUGCC | 0.52
6 | GGCAAAGCUCAACACAGCGUGGAAAAGUGGCUGUGGCUAGACUGCC | 0.14
7 | GGCAGAGCUCAACACAGCGUGGCAAAGUGGCUGUGUCUAGACUGCU | 0.1
8 | GGCAGAGCUCAUCACCGCGUGGCAAAGUGGCUGUGGCUAGACUGCC | 0.05
9 | GGCAGAGCUCAACACAGCGUGGCAAAGUGGCUGUGGCUACACUGUC | 0.1
10 | GGCAGAGCUCAACACAGCGUUGCAAAGUGGCUGUGGCUAGAGUGCC | 0.04
11 | GGCAGAACUCAACACAGCGUGGCAACGUGGCUGUGGCUAGACUGCC | 0.18
12 | GGCGGAGCUCAACACGGCGUGGCAAAGUGGCUGUGGCUAGACUGCC | 0.16
13 | GGCAGAGCUCAACACACCGUGGCAAAGUGGCUGGGGCUAGACUGCC | 0.1
14 | GGCAGAGCUCAACACAGCGUGACAAAGUGGCUGUGGCUAGACGGCC | 0
15 | GGCAGAGCUCAACACAACGUCGCAAAGUGGCUGUGGCUAGACUGCC | 0.74
16 | UGCAGAGCUCAACACACCGUGGCAAAGUGGCUGUGGCUAGACUGCC | 0.05
17 | GGCAGAGCUCAACACAGCUUGGCAAAGUGGCUGAGGCUAGACUGCC | 0.13
18 | GGCAGAGCUCAACACAGCGUGGCAAAGUGGCUGUGGCUAGGCUGGC | 0.05
19 | GGCAGAGCUCAACACAACGUGGCAAAGUGGCUGUGGCUAGCCUGCC | 0.04
20 | GGCAGAGCUCGACACAGCGUGGCAAAGUGGCUGUGGCUCGACUGCC | 0.04
21 | GGCAGAGCUCAACACAGCCUGGCAAACUGGCUGUGGCUAGACUGCC | 0.61
22 | GGCAGAGCUCGACCCAGCGUGGCAAAGUGGCUGUGGCUAGACUGCC | 0.02
23 | GGCAGAGCUCAACACAGCGUGGCAUAGUGGCUGUGGCUAGACUGCG | 0.66

Row | Variant | self-cleavage
24 | GGCAGAUCCCAACACAGCGUGGCAAAGUGGCUGUGGCUAGACUGCC | 0.04
25 | GGCAGAGCUCAACACAGCGUGGCAAAGUGGUUUUGGCUAGACUGCC | 0.06
26 | GGCAGAGCUCAACACAGCCGGGCAAAGUGGCUGUGGCUAGACUGCC | 0.4
27 | GGCAGAGCUCAACACAGCGAGGCAAUGUGGCUGUGGCUAGACUGCC | 0.91
28 | GGCAGAGCUCAACACAGCGCGGCAAAGUAGCUGUGGCUAGACUGCC | 0.55
29 | GGCAUACCUCAACACAGCGUGGCAAAGUGGCUGUGGCUAGACUGCC | 0.11
30 | GGCAGAGCUAAACACAGCGUGGCAAAGUGGCUGUGGCUAGAGUGCC | 0.16
31 | CGCAGAGCUCAACACAGCGUGGCAAAGUGGCUGUGGCUAGGCUGCC | 0.02
32 | GGCGGAGCUCAACACAGCGUGGCAAAGGGGCUGUGGCUAGACUGCC | 0.3
33 | GGCCGAGCUCAACACAGCGUGGCAACGUGGCUGUGGCUAGACUGCC | 0.1
34 | GGCAGAGCCCAACCCAGCGUGGCAAAGUGGCUGUGGCUAGACUGCC | 0.02
35 | GGCAGAGCUCAGCACAGCGUGGCAAAGUGGCUGUGGCUAGACUGCA | 0.31
36 | GGCAGAGCUCAACACAGCGUGGCACAGUGGCUGUGGCUGGACUGCC | 0.07
37 | GGCACAGCUCAACACAGCGUGGCAAAGUGGCUGUGGCUAGACUUCC | 0.09
38 | GGCAGGGCUCAACACAGCGUGGCAAAGUGGCUGUUGCUAGACUGCC | 0.08
39 | GGCAGAGCUCAACACAGCGUGCCAAAGAGGCUGUGGCUAGACUGCC | 0.44
40 | GGCAGAGCUCAACACAUCGUGGCAAACUGGCUGUGGCUAGACUGCC | 0.22
41 | GGCAGAGCUCAACACAGCGUGGCAAAGGGGCUGUGGCUAAACUGCC | 0.12
42 | GGCAGAGGUCAACACAGCGUGGCAAAGUGGCUGUGGCUAGACUGAC | 0.08
43 | GGCAGAGCACAACACCGCGUGGCAAAGUGGCUGUGGCUAGACUGCC | 0.08
44 | GGCAGAGCUCAACACAGCGUGGGAAAGUGGCUGUGGCUAGAGUGCC | 0.03
45 | GCCAGAGCUCAACACAGCGUGGCAACGUGGCUGUGGCUAGACUGCC | 0.11
46 | GGCAGAGUGCAACACAGCGUGGCAAAGUGGCUGUGGCUAGACUGCC | 0.09

Row | Variant | self-cleavage
47 | GGCAGAGCUCAACCCAGUGUGGCAAAGUGGCUGUGGCUAGACUGCC | 0.07
48 | GGCAGAGCUCAACACAGCGUGGCAAAGUGGCUGUAGCUAAACUGCC | 0.07
49 | GGCUGAGCUCAACACAGCGUGGCAAAGUGGCUGUGACUAGACUGCC | 0.12
50 | GGCUGAGCUCAACGCAGCGUGGCAAAGUGGCUGUGGCUAGACUGCC | 0.15
51 | GGCAGAGCUCAAUACAGCGUGGCAAAGUGGCUGUGGCAAGACUGCC | 0.04
52 | GGCAGAGCUCAACACAGCGUGGCAAACUGGCUGUGGCUAGCCUGCC | 0.03
53 | GGCAGAGCUCAACACAGCGUGGUAAAGUGGCUGUGGCUAGACUGCC | 1.03
54 | GGCAGUGCUCAACACAGCGUGGCAAAGUGGCUGUUGCUAGACUGCC | 0.2
55 | GGCAGAGCUCAACACAGCGUGGCAAAGUGCCUGUGGCUCGACUGCC | 0.26
56 | GGCAGAGCUCAACACAGCGUGGAAAAGUGGCUCUGGCUAGACUGCC | 0.05
57 | GGCAGAGCUCAACACAGCGUGACAAAAUGGCUGUGGCUAGACUGCC | 0.51
58 | GGCAGAGUUCAACACAGCGUGGCAAAGUGGCUGUGGCUAGACUGUC | 0.32
59 | GGCAGAGCUCAACUCAGCGUGGCAAAGUGGCUGUGCCUAGACUGCC | 0.08
60 | GGCAGAGCUCAACACAGUGUGGCAAAGUGGCUGUGGCUACACUGCC | 0.04
61 | GGCGGAGCUCAACACAGCGUGGCAAAGUGGCUGUGUCUAGACUGCC | 0.09
62 | GGCAGAGCUCAACACAGCGUCGCAAAGUGGGUGUGGCUAGACUGCC | 0.09
63 | GGCAGAGCUUAACACAGCGUGGCAAUGUGGCUGUGGCUAGACUGCC | 0.31
64 | GGCAGUGCUCAACACAGCGUGGCACAGUGGCUGUGGCUAGACUGCC | 0.65
65 | GGCAGAGCUCAACACAGCGAGGCAAAGUGGCUGUGGCUAGACUGUC | 1.4
66 | GGCAGAGCUCAACACAGCUUGGAAAAGUGGCUGUGGCUAGACUGCC | 0.64
67 | AGCAGAGCUCAACACAGCGUGGUAAAGUGGCUGUGGCUAGACUGCC | 1.29
68 | GGCAGAGCGCAACACAGCGUGGCAAAGUGGCUGUGGGUAGACUGCC | 0.05
69 | UGCAGAGAUCAACACAGCGUGGCAAAGUGGCUGUGGCUAGACUGCC | 0.08

Row | Variant | self-cleavage
70 | GGCAGAGCUCAACAGAGCGUGGCAAAGUAGCUGUGGCUAGACUGCC | 0.09
71 | GGCACAGCUCAACACAGCGUGGCAAAGUUGCUGUGGCUAGACUGCC | 0.12
72 | GGCAGAGCUGAACAAAGCGUGGCAAAGUGGCUGUGGCUAGACUGCC | 0.04
73 | GGCCGAGCUCAACACAGCGUGGCAAAGUGGCUGUGGCUAGACUGGC | 0.17
74 | GGCCGAGCUCAACACAGCGUGGCAAAGUGGCUGUGGCUAGACUGAC | 0.12
75 | GGCAGAGCUCUACACAGCAUGGCAAAGUGGCUGUGGCUAGACUGCC | 0.27
76 | GGCAGCGCUCAACACAGCGUGGCAAAGUGGCUGUGGCUAGGCUGCC | 1.17
77 | GGCAGAGCUCAACACAGCGUGGCAAAGUGGUUGUGGCUCGACUGCC | 0.12
78 | GGCAGAGCUCAACACAGCGUGGCAAAGCGGCUGUGGCUUGACUGCC | 1
79 | GGCAGAGCUCAACACAGCAUGGCAACGUGGCUGUGGCUAGACUGCC | 0.52
80 | GGCAGAGCUCAACACAGCGUGGCAGAGUGGCUGUUGCUAGACUGCC | 0.06
81 | GGCAGAGCUCAACACAGUGUGGCAAAGUGGCUGUGGCUAGACCGCC | 0.09
82 | GUCAGAGCUCAACACAGCGUGGCAAAGUGGCUGCGGCUAGACUGCC | 0.04
83 | GGCAGAGCUCCACACAGCGUGGCAAAGUGGCUGUGGCUAGAGUGCC | 0.03
84 | GGCAAAGCUCGACACAGCGUGGCAAAGUGGCUGUGGCUAGACUGCC | 0.03
85 | GGGAGAGCUCAACACAGCGUGGCAAAGUGGCUGUGGCGAGACUGCC | 0.05
86 | GGCAGAGUUCACCACAGCGUGGCAAAGUGGCUGUGGCUAGACUGCC | 0.04
87 | GGCAGAGCUCAACACAGCGUCGCACAGUGGCUGUGGCUAGACUGCC | 0.85
88 | GGCAGAGCUCAACCCAGCGUGGCAAAGUGGCUGUGGCUACACUGCC | 0.04
89 | GGCAGAGCUCAACACAGCGUGGCACAGUGGCUGUGGCUAGACUGUC | 0.49
90 | GGCAGAGCUCCACACAGCGUGGCAAAGUGGCCGUGGCUAGACUGCC | 0.04
91 | GGCAGAGCUCAAGUCAGCGUGGCAAAGUGGCUGUGGCUAGACUGCC | 0.09
92 | GGCAGAGCUCAACACAGCGUGGCAAAGCGGCUGUGGUUAGACUGCC | 0.06

Row | Variant | self-cleavage
93 | GGCAGAGCUCAACACAGCGUGGCAAAGUGGCUGUGGCUAGACUGUU | 1.03
94 | GGCAGAGCUCAACACAGCGUGGGAAAGUGCCUGUGGCUAGACUGCC | 2.06
95 | GGCAGAGCUCAACAAAGCGUGGCAAAGUGGCUGUGGCUAGACAGCC | 0.07
96 | GGCAGAGCUCAACACAGCGUGGCAAAGUGGCUUUGGCUAGAUUGCC | 0.09
97 | GGCAGAGCACAACACAGCGUGGCAAAGUGGCCGUGGCUAGACUGCC | 0.13
98 | GGCAGAGCUCAACAGAGAGUGGCAAAGUGGCUGUGGCUAGACUGCC | 0.09
99 | GGCAGAGCUUAACACAGGGUGGCAAAGUGGCUGUGGCUAGACUGCC | 0.22
100 | GGCAGAGCUCAACACAGCGUGGCAAAUUGGCUGUGGCUAGAGUGCC | 0.04
101 | UGCAGAGCUCAACACAGCGUGGCAGAGUGGCUGUGGCUAGACUGCC | 0.21
102 | GGCAGAGCUCAUCACAGCGUGGCAAAGUGGCUGUGGCAAGACUGCC | 0.09
103 | GGGAGAGCUCAACACAGCGUGGCAACGUGGCUGUGGCUAGACUGCC | 0.37
104 | GGCAGAGCUCAACACAGCGUGGCAAAGUGGCUGUGCCUAGACUACC | 0.04
105 | GGCAGAGCUCAACACAGCGAGGCAAAGUGGCUGUCGCUAGACUGCC | 0.05
106 | GUCAGAGCUCAACACAGCGUGCCAAAGUGGCUGUGGCUAGACUGCC | 0.12
107 | GGCAGAGCUCGACACAGCGUGGCAAAGUGGCGGUGGCUAGACUGCC | 0.03
108 | GGCAGAGCUCAACGCGGCGUGGCAAAGUGGCUGUGGCUAGACUGCC | 0.1
109 | GGCAGAGCUCAACACAGCGUGGCAAAGUGCCUGUGGCUACACUGCC | 0.18
110 | GGCAGAGCUCACCACAGCGAGGCAAAGUGGCUGUGGCUAGACUGCC | 0.03
111 | GGCAGAGCUCAACACAGCGUGGGAAAGUGGCUGCGGCUAGACUGCC | 0.32
112 | GGCAGAGCUCAACAAAGCGUGGCAAAGUGGGUGUGGCUAGACUGCC | 0.03
